From patent US20170267783A1 (published 2017)
Positions count from the first letter of the chain named.

B1: TR01H002-E22Hh/GLS3108-k0/GL4-E22Hk/H0000-E22L (bispecific antibody, human IgG1, kappa, L234A L235A, N297A)
heavy 1: QVQLVESGGGVVQPGRSLRLSCAASGFTFSNAWMHWVRQAPGKGLEWVAQIKAKSNNYKKYYAESVKGRFTISRDDSKNSLYLQMNSLKTEDTAVYYCRYVHYYYYYGVQAWGQGTTVTVSSASTKGPSVFPLAPSSKSTSGGTAALGCLVKDYFPEPVTVSWNSGALTSGVHTFPAVLQSSGLYSLSSVVTVPSSSLGTQTYICNVNHKPSNTKVDKKVEPKSCDKTHTCPPCPAPEAAGGPSVFLFPPKPKDTLMISRTPEVTCVVVDVSHEDPEVKFNWYVDGVEVHNAKTKPREEQYASTYRVVSVLTVLHQDWLNGKEYKCKVSNKALPAPIEKTISKAKGQPREPQVYTLPPSRCELTKNQVSLSCAVKGFYPSDIAVEWESNGQPENNYKTTPPVLDSDGSFFLVSKLTVDKSRWQQGNVFSCSVMHEALHNHYTQKSLSLSPDYKDDDDK
light 1: DIVMTQSPLSLPVTPGEPASISCRSSQSLVHSNRNTYLSWYQQKPGQAPRLLIYKVSNRFSGVPDRFSGSGSGTDFTLKISRVEAEDVGVYYCGQGTQVPYTFGQGTKLEIKRTVAAPSVFIFPPSDEQLKSGTASVVCLLNNFYPREAKVQWKVDNALQSGNSQESVTEQDSKDSTYSLSSTLTLSKADYEKHKVYACEVTHQGLSSPVTKSFNRGEC
heavy 2: DIVMTQSPLSLPVTPGEPASISCRSSQSLVHSNRNTYLHWYQQKPGQAPRLLIYKVSNRFSGVPDRFSGSGSGTDFTLKISRVEAEDVGVYYCSQNTHVPPTFGQGTKLEIKSSASTKGPSVFPLAPSSKSTSGGTAALGCLVKDYFPEPVTVSWNSGALTSGVHTFPAVLQSSGLYSLSSVVTVPSSSLGTQTYICNVNHKPSNTKVDKKVEPKSCDKTHTCPPCPAPEAAGGPSVFLFPPKPKDTLMISRTPEVTCVVVDVSHEDPEVKFNWYVDGVEVHNAKTKPREEQYASTYRVVSVLTVLHQDWLNGKEYKCKVSNKALPAPIEKTISKAKGQPREPQVCTLPPSRDELTKNQVSLWCLVKGFYPSDIAVEWESNGQPENNYKTTPPVLDSDGSFFLYSKLTVDKSRWQQGNVFSCSVMHEALHNHYTQKSLSLSPHHHHHHHH
light 2: QVQLVQSGAEVKKPGASVKVSCKASGYTFTDYEMHWIRQPPGQGLEWIGAIDPKTGDTAYSQKFKGRVTLTADKSTSTAYMELSSLTSEDTAVYYCTRFYSYTYWGQGTLVTVSSASVAAPSVFIFPPSDEQLKSGTASVVCLLNNFYPREAKVQWKVDNALQSGNSQESVTEQDSKDSTYSLSSTLTLSKADYEKHKVYACEVTHQGLSSPVTKSFNRGEC
notes: CD3 arm + GPC3 arm with VH/VL exchanged
B2: TR01H084-E2702GsKsc/GCH094-E2704sEpsc/L0011-k0 (bispecific antibody, human IgG4 S228P, kappa, N297A)
heavy 1: QVQLVESGGGVVQPGGSLRLSCAASGFTFSNAWMHWVRQAPGKGLEWVAQIKDKSQNYATYYAESVKGRFTISRADSKNSIYLQMNSLKTEDTAVYYCRYVHYAAGYGVDIWGQGTTVTVSSASTKGPSVFPLAPCSRSTSESTAALGCLVKDYFPEPVTVSWNSGALTSGVHTFPAVLQSSGLYSLSSVVTVPSSSLGTKTYTCNVDHKPSNTKVDKRVESKYGPPCPPCPAPEFRGGPKVFLFPPKPKDTLMISRTPEVTCVVVDVSQEDPEVQFNWYVDGVEVHNAKTKPREEQFASTYRVVSVLTVLHQDWLNGKEYKCKVSNKGLPSSIEKTISKAKGQPREPQVYTLPPSQKEMTKNQVSLTCLVKGFYPSDIAVEWESNGQPENNYKTTPPVLDSDGSFFLYSKLTVDKSRWQEGNVFSCSVMHEALHNRYTQKSLSLSP
heavy 2: QVQLVQSGAEVKKPGASVTVSCKASGYTFTDYEMHWVRQAPGEGLEWMGAIDGETPDTAYSEKFKGRVTLTADKSTSTAYMELSSLTSEDTAVYYCTRFYSYTYWGQGTLVTVSSASTKGPSVFPLAPCSRSTSESTAALGCLVKDYFPEPVTVSWNSGALTSGVHTFPAVLQSSGLYSLSSVVTVPSSSLGTQTYTCNVDHKPSNTKVDKRVESKYGPPCPPCPAPEFRGGPKVFLFPPKPKDTLMISRTPEVTCVVVDVSQEDPEVQFNWYVDGVEVHNAKTKPREEQFASTYRVVSVLTVLHQDWLNGKEYKCKVSNKGLPSSIEKTISKAKGQPREPQVYTLPPSQEEMTKNQVSLTCLVKGFYPSDIAVEWESNGQPENNYKTTPPVLDSDGSFFLYSKLTVDKSRWQEGNVFSCSVMHEALHNHYTQESLSLSP
light: B1 light 1 with S28P, S39H
B3: TR01H082-E2702GsKsc/GCH094-E2704sEpsc/L0201-k0 (bispecific antibody, human IgG4 S228P, kappa, N297A)
heavy 1: B2 heavy 1 with V11L, G16R, A75D, I81L, I111A
heavy 2: B2 heavy 2
light: B1 light 1 with S28P, L29P, S39H
B4: TR01H040-E2702GsKsc/H0610-E2704sEpsc/L0000-k0 (bispecific antibody, human IgG4 S228P, kappa, N297A)
heavy 1: B2 heavy 1 with V11L, G16R, A104S, G106S, I111A
heavy 2: B2 heavy 2 with T19K, V37I, A40P, E43Q, M48I, E54K, E62Q
light: B1 light 1 with S39H
B5: TR01H040-E2702GsKsc/H0610-E2704sEpsc/L0201-k0 (bispecific antibody, human IgG4 S228P, kappa, N297A)
heavy 1: B2 heavy 1 with V11L, G16R, A104S, G106S, I111A
heavy 2: B2 heavy 2 with T19K, V37I, A40P, E43Q, M48I, E54K, E62Q
light: B1 light 1 with S28P, L29P, S39H
B6: TR01H040-E2702GsKsc/H0610-E2704sEpsc/L0203-k0 (bispecific antibody, human IgG4 S228P, kappa, N297A)
heavy 1: B2 heavy 1 with V11L, G16R, A104S, G106S, I111A
heavy 2: B2 heavy 2 with T19K, V37I, A40P, E43Q, M48I, E54K, E62Q
light: B1 light 1 with L29P, L38I, S39H
B7: TR01H082-E2702GsKsc/GCH094-E2704sEpsc/L0011-k0 (bispecific antibody, human IgG4 S228P, kappa, N297A)
heavy 1: B2 heavy 1 with V11L, G16R, A75D, I81L, I111A
heavy 2: B2 heavy 2
light: B1 light 1 with S28P, S39H
B8: TR01H109-E2702GsKsc/GCH065-E2704sEpsc/L0011-k0 (bispecific antibody, human IgG4 S228P, kappa, N297A)
heavy 1: B2 heavy 1 with V11L, G16R, Y62V, A75D, I81L, I111A
heavy 2: B2 heavy 2 with V37I, A40P, M48I, E54P
light: B1 light 1 with S28P, S39H
B9: TR01H067-E2702GsKsc/GCH054-E2704sEpsc/L0222-k0 (bispecific antibody, human IgG4 S228P, kappa, N297A)
heavy 1: B2 heavy 1 with V11L, G16R, A75D, I81L, G106S, I111A
heavy 2: B2 heavy 2 with V37I, A40P, M48I
light: B1 light 1 with L29P, L38I, S39Q, G94Y
B10: TR01H067-E2702GsKsc/GCH054-E2704sEpsc/L0201-k0 (bispecific antibody, human IgG4 S228P, kappa, N297A)
heavy 1: B2 heavy 1 with V11L, G16R, A75D, I81L, G106S, I111A
heavy 2: B2 heavy 2 with V37I, A40P, M48I
light: B1 light 1 with S28P, L29P, S39H
B11: TR01H109-E2702GsKsc/GCH094-E2704sEpsc/L0011-k0 (bispecific antibody, human IgG4 S228P, kappa, N297A)
heavy 1: B2 heavy 1 with V11L, G16R, Y62V, A75D, I81L, I111A
heavy 2: B2 heavy 2
light: B1 light 1 with S28P, S39H
B12: TR01H113-E2702sKsc/GCH065-E2704sEpsc/L0011-k0 (bispecific antibody, human IgG4 S228P, kappa, N297A)
heavy 1: B2 heavy 1 with Y62V, R437H
heavy 2: B2 heavy 2 with V37I, A40P, M48I, E54P
light: B1 light 1 with S28P, S39H

Each binder was assayed against T1, soluble human CD3ε chain (human, UniProt P07766 23-126) (assay: SPR (Biacore)).
T1 construct: also called CD3 epsilon
T1 sequence (P07766 23-126 limits assumed): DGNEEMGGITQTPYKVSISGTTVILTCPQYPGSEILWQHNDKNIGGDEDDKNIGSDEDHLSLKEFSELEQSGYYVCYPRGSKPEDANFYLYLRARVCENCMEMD

Binder	Kd
B1	4.76 nM

What follows are binders tested against extracellular matrix (ECM; BD Matrigel) (assay: ECL on Matrigel-coated plate, signal divided by that of MRAH-G1d/MRAL-k0).

Binder	ECM binding ratio (standard = 1) (ratio to standard antibody)
B2	1.2
B3	1.1
B4	0.8
B5	0.8
B6	0.8
B7	0.7
B8	0.7
B9	0.6
B10	0.5
B11	0.4
B12	0.3
